Positions of bridges follow the written chain, without caps; N, C: chain ends. Non-standard residues stand in square brackets, D forms with d. Phe(4-CF3) = N[C@@H](Cc1ccc(C(F)(F)F)cc1)C(=O)O; Phe(4-tBu) = CC(C)(C)c1ccc(C[C@H](N)C(=O)O)cc1; Bip = N[C@@H](Cc1ccc(-c2ccccc2)cc1)C(=O)O; Phe(4-Br) = N[C@@H](Cc1ccc(Br)cc1)C(=O)O; 1Nal = N[C@@H](Cc1cccc2ccccc12)C(=O)O; 2Nal = N[C@@H](Cc1ccc2ccccc2c1)C(=O)O; NMeNle = CCCC[C@H](NC)C(=O)O; NMeV = CN[C@H](C(=O)O)C(C)C; NMeA = CN[C@@H](C)C(=O)O; Sar = CNCC(=O)O

The chains are these.
B1: Compound No. 30 (peptide)
peptide: {CH2CO}-Y[NMeA]NPHL[Sar]WSW[NMeNle][NMeNle]RCG-NH2
modifications: thioether N-14
SMILES: CCCC[C@H]1C(=O)N(C)[C@@H](CCCC)C(=O)N[C@@H](CCCNC(=N)N)C(=O)N[C@H](C(=O)NCC(N)=O)CSCC(=O)N[C@@H](Cc2ccc(O)cc2)C(=O)N(C)[C@@H](C)C(=O)N[C@@H](CC(N)=O)C(=O)N2CCC[C@H]2C(=O)N[C@@H](Cc2c[nH]cn2)C(=O)N[C@@H](CC(C)C)C(=O)N(C)CC(=O)N[C@@H](Cc2c[nH]c3ccccc23)C(=O)N[C@@H](CO)C(=O)N[C@@H](Cc2c[nH]c3ccccc23)C(=O)N1C
B2: Compound No. 43 (peptide)
peptide: {CH2CO}-F[NMeA]GPHL[Sar]WSW[NMeNle][NMeNle]RCG-NH2
modifications: thioether N-14
SMILES: CCCC[C@H]1C(=O)N(C)[C@@H](CCCC)C(=O)N[C@@H](CCCNC(=N)N)C(=O)N[C@H](C(=O)NCC(N)=O)CSCC(=O)N[C@@H](Cc2ccccc2)C(=O)N(C)[C@@H](C)C(=O)NCC(=O)N2CCC[C@H]2C(=O)N[C@@H](Cc2c[nH]cn2)C(=O)N[C@@H](CC(C)C)C(=O)N(C)CC(=O)N[C@@H](Cc2c[nH]c3ccccc23)C(=O)N[C@@H](CO)C(=O)N[C@@H](Cc2c[nH]c3ccccc23)C(=O)N1C
B3: Compound No. 41 (peptide)
peptide: {CH2CO}-F[NMeV]NPHL[Sar]WSW[NMeNle][NMeNle]RCG-NH2
modifications: thioether N-14
SMILES: CCCC[C@H]1C(=O)N(C)[C@@H](CCCC)C(=O)N[C@@H](CCCNC(=N)N)C(=O)N[C@H](C(=O)NCC(N)=O)CSCC(=O)N[C@@H](Cc2ccccc2)C(=O)N(C)[C@@H](C(C)C)C(=O)N[C@@H](CC(N)=O)C(=O)N2CCC[C@H]2C(=O)N[C@@H](Cc2c[nH]cn2)C(=O)N[C@@H](CC(C)C)C(=O)N(C)CC(=O)N[C@@H](Cc2c[nH]c3ccccc23)C(=O)N[C@@H](CO)C(=O)N[C@@H](Cc2c[nH]c3ccccc23)C(=O)N1C
B4: Compound No. 12 (peptide)
peptide: {CH2CO}-F[NMeA]NPHLGWSW[NMeNle][NMeNle]RCG-NH2
modifications: thioether N-14
SMILES: CCCC[C@H]1C(=O)N(C)[C@@H](CCCC)C(=O)N[C@@H](CCCNC(=N)N)C(=O)N[C@H](C(=O)NCC(N)=O)CSCC(=O)N[C@@H](Cc2ccccc2)C(=O)N(C)[C@@H](C)C(=O)N[C@@H](CC(N)=O)C(=O)N2CCC[C@H]2C(=O)N[C@@H](Cc2c[nH]cn2)C(=O)N[C@@H](CC(C)C)C(=O)NCC(=O)N[C@@H](Cc2c[nH]c3ccccc23)C(=O)N[C@@H](CO)C(=O)N[C@@H](Cc2c[nH]c3ccccc23)C(=O)N1C
B5: Compound No. 19 (peptide)
peptide: FANPHLGWSWAXRCG
HELM: PEPTIDE1{[O=C(C[*:3])[*:2]].F.[meA].N.P.H.L.[Sar].W.S.W.[meA].[CCCC[C@@H](C(=O)[*:2])N(C)[*:1]].R.C.G.[am]}$PEPTIDE1,PEPTIDE1,1:R3-15:R3$$$V2.0
SMILES: CCCC[C@H]1C(=O)N[C@@H](CCCNC(=N)N)C(=O)N[C@H](C(=O)NCC(N)=O)CSCC(=O)N[C@@H](Cc2ccccc2)C(=O)N(C)[C@@H](C)C(=O)N[C@@H](CC(N)=O)C(=O)N2CCC[C@H]2C(=O)N[C@@H](Cc2c[nH]cn2)C(=O)N[C@@H](CC(C)C)C(=O)N(C)CC(=O)N[C@@H](Cc2c[nH]c3ccccc23)C(=O)N[C@@H](CO)C(=O)N[C@@H](Cc2c[nH]c3ccccc23)C(=O)N(C)[C@@H](C)C(=O)N1C
B6: Compound No. 24 (peptide)
peptide: {CH2CO}-F[NMeA]NPHL[Sar]WSW[NMeNle][NMeNle]RC-NH2
modifications: thioether N-14
SMILES: CCCC[C@H]1C(=O)N(C)[C@@H](CCCC)C(=O)N[C@@H](CCCNC(=N)N)C(=O)N[C@H](C(N)=O)CSCC(=O)N[C@@H](Cc2ccccc2)C(=O)N(C)[C@@H](C)C(=O)N[C@@H](CC(N)=O)C(=O)N2CCC[C@H]2C(=O)N[C@@H](Cc2c[nH]cn2)C(=O)N[C@@H](CC(C)C)C(=O)N(C)CC(=O)N[C@@H](Cc2c[nH]c3ccccc23)C(=O)N[C@@H](CO)C(=O)N[C@@H](Cc2c[nH]c3ccccc23)C(=O)N1C
B7: Compound No. 37 (peptide)
peptide: {CH2CO}-[Phe(4-tBu)][NMeA]NPHL[Sar]WSW[NMeNle][NMeNle]RCG-NH2
modifications: thioether N-14
SMILES: CCCC[C@H]1C(=O)N(C)[C@@H](CCCC)C(=O)N[C@@H](CCCNC(=N)N)C(=O)N[C@H](C(=O)NCC(N)=O)CSCC(=O)N[C@@H](Cc2ccc(C(C)(C)C)cc2)C(=O)N(C)[C@@H](C)C(=O)N[C@@H](CC(N)=O)C(=O)N2CCC[C@H]2C(=O)N[C@@H](Cc2c[nH]cn2)C(=O)N[C@@H](CC(C)C)C(=O)N(C)CC(=O)N[C@@H](Cc2c[nH]c3ccccc23)C(=O)N[C@@H](CO)C(=O)N[C@@H](Cc2c[nH]c3ccccc23)C(=O)N1C
B8: Compound No. 35 (peptide)
peptide: {CH2CO}-[Phe(4-CF3)][NMeA]NPHL[Sar]WSW[NMeNle][NMeNle]RCG-NH2
modifications: thioether N-14
SMILES: CCCC[C@H]1C(=O)N(C)[C@@H](CCCC)C(=O)N[C@@H](CCCNC(=N)N)C(=O)N[C@H](C(=O)NCC(N)=O)CSCC(=O)N[C@@H](Cc2ccc(C(F)(F)F)cc2)C(=O)N(C)[C@@H](C)C(=O)N[C@@H](CC(N)=O)C(=O)N2CCC[C@H]2C(=O)N[C@@H](Cc2c[nH]cn2)C(=O)N[C@@H](CC(C)C)C(=O)N(C)CC(=O)N[C@@H](Cc2c[nH]c3ccccc23)C(=O)N[C@@H](CO)C(=O)N[C@@H](Cc2c[nH]c3ccccc23)C(=O)N1C
B9: Compound No. 28 (peptide)
peptide: {CH2CO}-[Bip][NMeA]NPHL[Sar]WSW[NMeNle][NMeNle]RCG-NH2
modifications: thioether N-14
SMILES: CCCC[C@H]1C(=O)N(C)[C@@H](CCCC)C(=O)N[C@@H](CCCNC(=N)N)C(=O)N[C@H](C(=O)NCC(N)=O)CSCC(=O)N[C@@H](Cc2ccc(-c3ccccc3)cc2)C(=O)N(C)[C@@H](C)C(=O)N[C@@H](CC(N)=O)C(=O)N2CCC[C@H]2C(=O)N[C@@H](Cc2c[nH]cn2)C(=O)N[C@@H](CC(C)C)C(=O)N(C)CC(=O)N[C@@H](Cc2c[nH]c3ccccc23)C(=O)N[C@@H](CO)C(=O)N[C@@H](Cc2c[nH]c3ccccc23)C(=O)N1C
B10: Compound No. 34 (peptide)
peptide: {CH2CO}-[Phe(4-Br)][NMeA]NPHL[Sar]WSW[NMeNle][NMeNle]RCG-NH2
modifications: thioether N-14
SMILES: CCCC[C@H]1C(=O)N(C)[C@@H](CCCC)C(=O)N[C@@H](CCCNC(=N)N)C(=O)N[C@H](C(=O)NCC(N)=O)CSCC(=O)N[C@@H](Cc2ccc(Br)cc2)C(=O)N(C)[C@@H](C)C(=O)N[C@@H](CC(N)=O)C(=O)N2CCC[C@H]2C(=O)N[C@@H](Cc2c[nH]cn2)C(=O)N[C@@H](CC(C)C)C(=O)N(C)CC(=O)N[C@@H](Cc2c[nH]c3ccccc23)C(=O)N[C@@H](CO)C(=O)N[C@@H](Cc2c[nH]c3ccccc23)C(=O)N1C
B11: Compound No. 21 (peptide)
peptide: FANPHLGWSWXARCG
HELM: PEPTIDE1{[O=C(C[*:3])[*:2]].F.[meA].N.P.H.L.[Sar].W.S.W.[CCCC[C@@H](C(=O)[*:2])N(C)[*:1]].[meA].R.C.G.[am]}$PEPTIDE1,PEPTIDE1,1:R3-15:R3$$$V2.0
SMILES: CCCC[C@H]1C(=O)N(C)[C@@H](C)C(=O)N[C@@H](CCCNC(=N)N)C(=O)N[C@H](C(=O)NCC(N)=O)CSCC(=O)N[C@@H](Cc2ccccc2)C(=O)N(C)[C@@H](C)C(=O)N[C@@H](CC(N)=O)C(=O)N2CCC[C@H]2C(=O)N[C@@H](Cc2c[nH]cn2)C(=O)N[C@@H](CC(C)C)C(=O)N(C)CC(=O)N[C@@H](Cc2c[nH]c3ccccc23)C(=O)N[C@@H](CO)C(=O)N[C@@H](Cc2c[nH]c3ccccc23)C(=O)N1C
B12: Compound No. 27 (peptide)
peptide: {CH2CO}-[1Nal][NMeA]NPHL[Sar]WSW[NMeNle][NMeNle]RCG-NH2
modifications: thioether N-14
SMILES: CCCC[C@H]1C(=O)N(C)[C@@H](CCCC)C(=O)N[C@@H](CCCNC(=N)N)C(=O)N[C@H](C(=O)NCC(N)=O)CSCC(=O)N[C@@H](Cc2cccc3ccccc23)C(=O)N(C)[C@@H](C)C(=O)N[C@@H](CC(N)=O)C(=O)N2CCC[C@H]2C(=O)N[C@@H](Cc2c[nH]cn2)C(=O)N[C@@H](CC(C)C)C(=O)N(C)CC(=O)N[C@@H](Cc2c[nH]c3ccccc23)C(=O)N[C@@H](CO)C(=O)N[C@@H](Cc2c[nH]c3ccccc23)C(=O)N1C
B13: Compound No. 26 (peptide)
peptide: {CH2CO}-[2Nal][NMeA]NPHL[Sar]WSW[NMeNle][NMeNle]RCG-NH2
modifications: thioether N-14
SMILES: CCCC[C@H]1C(=O)N(C)[C@@H](CCCC)C(=O)N[C@@H](CCCNC(=N)N)C(=O)N[C@H](C(=O)NCC(N)=O)CSCC(=O)N[C@@H](Cc2ccc3ccccc3c2)C(=O)N(C)[C@@H](C)C(=O)N[C@@H](CC(N)=O)C(=O)N2CCC[C@H]2C(=O)N[C@@H](Cc2c[nH]cn2)C(=O)N[C@@H](CC(C)C)C(=O)N(C)CC(=O)N[C@@H](Cc2c[nH]c3ccccc23)C(=O)N[C@@H](CO)C(=O)N[C@@H](Cc2c[nH]c3ccccc23)C(=O)N1C

In the experiment the target is T1, hPDL1(19-239)-TVMV-His (human, UniProt Q9NZQ7 19-239).
T1 construct: The text says amino acids 18-239, the construct name says 19-239; Expressed in HEK293T cells; Used at 10 nM final in the HTRF assay; also called PD-L1-His; PD-L1-TVMV-His
T1 sequence (Q9NZQ7 other isoform, or with tags, fused parts or gaps limits assumed): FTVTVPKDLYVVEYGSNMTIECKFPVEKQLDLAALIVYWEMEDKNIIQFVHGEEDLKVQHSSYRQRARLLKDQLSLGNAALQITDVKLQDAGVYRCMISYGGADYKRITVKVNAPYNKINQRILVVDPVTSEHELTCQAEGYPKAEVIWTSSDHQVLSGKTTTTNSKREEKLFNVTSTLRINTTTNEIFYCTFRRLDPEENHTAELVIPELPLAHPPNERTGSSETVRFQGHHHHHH
The experiment in a line: HTRF competition, PD-1-Ig binding to PD-L1-His. As to the method: All binding studies were performed in an HTRF assay buffer consisting of dPBS supplemented with 0.1% (w/v) bovine serum albumin and 0.05% (v/v) Tween-20. […] PD-L1 fusion proteins from either human, cynomologous macaques, or mouse were used. HTRF detection was achieved using europium crypate-labeled anti-Ig monoclonal antibody (1 nM final) and allophycocyanin (APC) labeled anti-His monoclonal antibody (20 nM final). Antibodies were diluted in HTRF detection buffer and 5 μl was dispensed on top of binding reaction. The reaction was allowed to equilibrate for 30 minutes and signal (665 nm/620 nm ratio) was obtained using an EnVision fluorometer. […]
HTRF Experiments were performed essentially as outlined supra. Variant macrocyclic peptides were created as outlined herein.
(TR-FRET usually uses a lanthanide donor and a delayed reading to cut background.)
As usually defined, the IC50 is the concentration needed to halve the response being measured. B1: the IC50 came out at 0.005 µM. This counts as single-digit nanomolar.
The same measure for B2: 0.554 µM; for B3: 0.921 µM.
As for B4, the figure is 0.022 µM.
The same measure for B5: 0.033 µM; for B6: 0.009 µM; for B7: 1.27 µM.
B8: the IC50 was determined as 0.056 µM.
The same measure for B9: 0.117 µM.
On to B10, for which the IC50 was 0.004 µM.
As for B11, the figure is 0.021 µM; as for B12, 0.02 µM.
Regarding B13, the IC50 stood at 0.015 µM.
